The values below come from patent US20020137684A1, “Ligand for enhancing oral and CNS delivery of biological agents” (priority 2000, published 2002).

Where no end group is shown, it is not given here. [ ]: non-standard residue; d: D form. TAMRA = carboxytetramethylrodamine

Data set [1] deals with Caco-2 monolayers. As to the kind of experiment: Transport of peptides across Caco-2 monolayers (Transwell, fluorescence). It counts as in vitro ADME, human. Conditions: 50 micromol/L apical. Here is the method:
The desired numbers of Transwell (6.5mm diameter, 0.4 μm pore size) were placed in the wells of the tissue culture plates. The filters were wetted with medium (0.1 ml to the apical and 0.6 ml to the basolateral sides of Transwell) for 30 min in the CO2 incubator before the harvest of the cells from the flasks. The cells were re-suspended in the medium 5×10^5 cells/ml and 0.2 ml of cell suspension medium was added to the apical side of the Transwell and cultured in the CO2 incubator. The medium was changed every second day for 8-12 days to obtain well-differentiated monolayers suitable for transport experiences.
The medium in apical chamber was gently removed. […] The inserts were transferred to the new chamber. […] Peptide SEQ. ID. NO.: 2, or SEQ. ID.
The concentration of peptide in sample was determined by the fluorescence of the sample using excitation 530 nm, emission 590 nm. The concentration of dextran in samples was determined by the fluorescence of the sample using excitation 480 nm, emission 530 nm.
A general note: Caco-2 monolayers are a common model of the intestinal barrier.

Data set [2] concerns Caco-2 monolayers. Description: Transport of peroxidase conjugate across Caco-2 monolayers. Conditions: 25 µg/ml apical, peroxidase activity. The method, then: A two-chamber Caco-2 model was used to evaluate the transport of a conjugate comprising peroxidase and a peptide comprising an amino acid sequence of SEQ. ID. NO.:1 across the intestinal barrier (IB) in vitro. […] The medium containing isotope-labeled compound, the SEQ. ID. NO.:1-Peroxidase conjugate ([…]) or Control Peroxidase conjugate ([…]) was added to the apical side of cultured Caco-2 monolayers.

Data set [3] has as its system Caco-2 monolayers. As to the kind of experiment: Inhibition of phage transport across Caco-2 monolayers by SEQ. ID. NO.:1-Peroxidase conjugate. Conditions: 50 μg/ml conjugate, 3 hours.
Description: The cell monolayers on the insert filter apically and basolaterally were rinsed twice on each side with PBS and pre-incubated with pre-warmed D-MEM for 30 min. The medium in apical chamber was gently removed. […] The inserts were transferred to the new chamber. ^3H-Manitol was used as a probe to monitor Caco-2 monolayer leakiness. The medium containing isotope-labeled compound, a phage that expresses a peptide comprising an amino acid sequence of SEQ. […] NO.:4 (5×10^9 cfu/ml) or wild-type phage (Control phage 1.5×10^9 cfu/ml) in the presence and absence of 50 μg/ml of SEQ. […] NO.:1-Peroxidase conjugate was added to the apical side. After 3 hours incubation, the media from apical and basolateral sides of the chamber was collected and used to determine the phage and ^3H-manitol transport across Caco-2 monolayers. The relative transport of compounds in % through Caco-2 was calculated as:
where Cb is a concentration of compound in basolateral chamber, Ca is a concentration of compound in the apical chamber, Vb is a volume of media in basolateral chamber and Va is a volume of media in the apical chamber. The transport of phage that expresses a peptide comprising an amino acid sequence of SEQ. […] NO.:4, or peptide SEQ. […] NO.:1-Peroxidase conjugate was detected.
For the next data set, the system named is CACO 2 cells. As to the kind of experiment: Digestion of peptide in apical chamber of Caco-2 cells (HPLC). It counts as in vitro ADME, human. Here is the method:
Digestion of peptide SEQ. ID. NO.:2 in apical chamber was determined using HPLC. The samples were diluted 100 times with the media, and 0.200 mL of each was injected on a column RP-HPLC column Vydac 218TP54, pre equilibrated 15 minutes with 5 acetonitroile/water (10 mM phosphoric acid) at flow rate 1 mL per minute. Sample was eluted with two component gradient 1% per minute of acetonitrole (10 mM phosphoric acid)/water (10 mM phosphoric acid) at flow rate 1 mL per minute. Fluorescent detection was used with excitation wavelength 555 nm and emission wavelength 580 nm. The peptide SEQ. ID. NO.: 2 was eluted as sharp peak at 22.3 min. The percentage of remaining peptide was calculated as: […]
where A—area under the peak at 22.3 min, SUM(Ai)—the sum of area of all peaks eluted between 13 and 26 minutes.

Turning to “tamra-D-Ala-D-Ser-D-Ala-D-Arg-D-Val-D-Leu-D-Asp-D-Gly-D-Asp-D-Arg-D-Thr-D-Arg-D-Trp-D-Gly-NH2 ({TAMRA}-[dA][dS][dA][dR][dV][dL][dD]G[dD][dR][dT][dR][dW]G-NH2) [SEQ. ID. NO. 3]”, the “Transport [%]” value in the data set with Caco-2 monolayers [1] (0.5 h) worked out at 0.06%; in the data set on Caco-2 monolayers [1] (1.0 h) it was 0.43%; in the data set with Caco-2 monolayers [1] (2.0 h) it was 1.03%; in the data set on Caco-2 monolayers [1] ([…]), 0.30%.

Take “SEQ. ID. NO.:1-Peroxidase Conjugate (Ac-CRVLDGDRTRWG; also: peroxidase conjugate)”: the entries for the “Transport through Caco-2 monolayers, P, %” value with Caco-2 monolayers [2] (2 hours) and in the data set on Caco-2 monolayers [2] (4 hours) were 0.35 ± 0.014% and 0.705 ± 0.09%, respectively. Besides, the “inhibition of transport of SEQ. ID. NO.:4 phage across Caco-2 monolayers” value in the data set with Caco-2 monolayers [3] was “completely inhibited”.

For dextran [reference compound], the “Transport [%]” value in the data set with Caco-2 monolayers [1] (0.5 h) was found to be 0.05%; in the data set on Caco-2 monolayers [1] (1.0 h), 0.16%; with Caco-2 monolayers [1] (2.0 h), 0.63%; in the data set with Caco-2 monolayers [1] ([…]), 0.38%.

Consider “tamra-Ala-Ser-Ala-Arg-Val-Leu-Asp-Gly-Asp-Arg-Thr-Arg-Trp-Gly-NH2 ({TAMRA}-ASARVLDGDRTRWG-NH2) [SEQ. ID. NO.: 2]”, for which the “Transport [%]” value with Caco-2 monolayers [1] (0.5 h) is reported as 0.22%; in the data set on Caco-2 monolayers [1] (1.0 h), 0.16%; with Caco-2 monolayers [1] (2.0 h), 1.23%; with Caco-2 monolayers [1] ([…]), 0.71%. The “Remaining peptide [%]” value is 86% in the data set with CACO 2 cells (0.5 h incubation with CACO 2 cells), 84% with CACO 2 cells (1 h incubation with CACO 2 cells) and 63% with CACO 2 cells (2 h incubation with CACO 2 cells).
